The values that follow come from US9765346B2, “Biological methods for preparing a fatty dicarboxylic acid” (Verdezyne, Inc., priority 2011, dated 2017).

This experiment has as its target T1, Pox4 (Candida tropicalis, UniProt P06598).
T1 construct: made in house; host or cells: E. coli Rosetta II BL21, pET26b; crude cell lysate (10 ug per reaction)
In kind it is biochemical, Candida strain ATCC20336. As to conditions: native isozyme. As for the experimental part:
To express an enzyme, a colony from each transformation of Rosetta cells was used to start a 5 ml overnight culture of LB containing the antibiotics kanamycin (to select for pET26b) and chloramphenicol (to select for a second plasmid found in Rosetta II cells that mediates improved translation of eukaryotic proteins expressed in E. coli) grown at 37° C. The next morning, the overnight culture was used to seed 30 ml of LB containing kanamycin and chloramphenicol to an OD600 reading of 0.1. The 30 ml cultures were grown at 37° C. for 2 hours and then placed on ice for 10 minutes. To induce expression, isopropyl-beta-D-thiogalactopyranoside (IPTG) was added to the culture to a final concentration of 0.1 mM. In some cases induction was performed using Novagen Overnight Express Autoinduction System 1 (CAT#71300-3). The cells were then shaken at 15° C. overnight to express the acyl CoA oxidase.
To test the activity of the acyl CoA oxidase, cells from the overnight induction were pelleted at 1046×g at 4° C. in 50 ml conical tubes. The cell pellets were resuspended in 1 ml of 50 mM KPO4, pH 7.6, 50 μM FAD buffer and then transferred to a 2 ml centrifuge tube. A Misonix Sonicator 3000 (QSonica, Newtown, Conn.) was used to lyse the cells, which were sonicated at a power setting of 2 for 2 pulses of 20 seconds each. […] The spectrophotometer was set to read for 5 minutes at 500 nm, 30° C. […]

B1: Pox4p: native acyl-CoA oxidase isozyme of Candida strain ATCC20336 (protein, UniProt P06598 2-709, looked up)
Acyl-coenzyme A oxidase 4: TFTKKNVSVSQGPDPRSSIQKERDSSKWNPQQMNYFLEGSVERSELMKALAQQMERDPILFTDGSYYDLTKDQQRELTAVKINRIARYREQESIDTFNKRLSLIGIFDPQVGTRIGVNLGLFLSCIRGNGTTSQLNYWANEKETADVKGIYGCFGMTELAHGSNVAGLETTATFDKESDEFVINTPHIGATKWWIGGAAHSATHCSVYARLIVDGQDYGVKTFVVPLRDSNHDLMPGVTVGDIGPKMGRDGIDNGWIQFSNVRIPRFFMLQKFCKVSAEGEVTLPPLEQLSYSALLGGRVMMVLDSYRMLARMSTIALRYAIGRRQFKGDNVDPNDPNALETQLIDYPLHQKRLFPYFVPPMSSPSVPSRLNTPSRPPWSNWTSPLKRTTPRLIFKSIDDMKSLFVDSGSLKSTATWLGAEAIDQCRQACGGHGHSSYNGFGKAYNDWVVQCTWEGDNNVLGMSVGKPIVKQVISIEDAGKTVRGSTAFLNQLKEYTGSNSSKVVLNTVADLDDIKTVIKAIEVAIIRLSQEAASIVKKESFDYVGAELVQLSKLKAHHYLLTEYIRRIDTFDQKELAPYLITLGKLYAATIVLDRFAGVFLTFNVASTEAITALASVQIPKLCAEVRPNVVAYTDSFQQSDMIVNSAIGRYDGDIYENYFDLVKLQNPPSKTKAPYSDALEAMLNRPTLDERERFQKSDETAAILSK
As for B1, the substrate specificity result is “broad substrate specificity”.
